Data set [1] deals with T1, HYH.2-His (HYH splice isoform 2) (Arabidopsis thaliana, UniProt Q8W191 1-149).
T1 sequence: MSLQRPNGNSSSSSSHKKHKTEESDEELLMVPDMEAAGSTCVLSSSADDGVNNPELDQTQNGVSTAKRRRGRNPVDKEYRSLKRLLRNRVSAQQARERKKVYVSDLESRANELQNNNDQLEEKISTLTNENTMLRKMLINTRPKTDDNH
Briefly: competition; 100x, 400x, 1600x molar excess over labeled N1; gradual decrease of shift; EMSA: LightShift Chemiluminescent EMSA Kit (manufacturer's instructions), 100 ng HYH.2-His, room temperature 30 min, 8% native polyacrylamide gel; buffer, salt. Particulars: protein: recombinant; tags: His (pET28a+); chain copies: 2; label: none; blunt. (Mobility shift assays separate free from complexed probe on a gel.)

The target in data set [2] is T1, HYH.2-His (HYH splice isoform 2). Briefly: EMSA; 100 ng protein; EMSA: LightShift Chemiluminescent EMSA Kit (manufacturer's instructions), 100 ng HYH.2-His, room temperature 30 min, 8% native polyacrylamide gel; buffer, salt. As to conditions: protein: recombinant; tags: His (pET28a+); chain copies: 2; label: 5'-biotin; blunt.

B1: miR169a G-box-like, unlabeled competitor (dsDNA)
DNA 1: TGTACGGCCACGCAAAAGTGACCTAC
DNA 2: GTAGGTCACTTTTGCGTGGCCGTACA
B1: the binding result in data set [1] was “binds”.

B2: miR169a NC1 (dsDNA)
DNA 1: ATCTTCTGTTTAACAACATATG
DNA 2: CATATGTTGTTAAACAGAAGAT
With B2, the binding result in data set [2] is “no binding”.

B3: miR169a G-box-like (G) (dsDNA)
DNA 1: TGTACGGCCACGCAAAAGTGACCTAC
DNA 2: GTAGGTCACTTTTGCGTGGCCGTACA
As to B3, the binding result in data set [2] was “binds”.

The values are drawn from publication PMC5725467, “Elongated Hypocotyl 5-Homolog (HYH) Negatively Regulates Expression of the Ambient Temperature-Responsive MicroRNA Gene MIR169”.
